Measured values as given in patent publication US20250215108A1.

Assays:
[1] = molecular target: recombinant hSIRPa-His (Sino Biologicals, reference 11612-H08H) (human) (UniProt P78324); test: ELISA, immobilized hSIRPa-His, anti-human IgG detection
[2] = molecular target: recombinant hSIRPa-His (Sino Biologicals, reference 11612-H08H) (human) (UniProt P78324); test: SPR (Biacore 3000); SIRPa-His immobilised on a CM5 chip (500 RU), antibody injected; 3 min association, 10 min dissociation
[3] = molecular target: recombinant hSIRPb-His (Antibodies-online, reference ABIN3077231) (human) (UniProt Q5TFQ8); test: BLI (Blitz): SIRPb-His on Ni-NTA biosensor, antibody at 20 µg/ml; 120 s association, 120 s dissociation
recombinant hSIRPb-His (Antibodies-online, reference ABIN3077231) (human), sequence (Q5TFQ8 30-371): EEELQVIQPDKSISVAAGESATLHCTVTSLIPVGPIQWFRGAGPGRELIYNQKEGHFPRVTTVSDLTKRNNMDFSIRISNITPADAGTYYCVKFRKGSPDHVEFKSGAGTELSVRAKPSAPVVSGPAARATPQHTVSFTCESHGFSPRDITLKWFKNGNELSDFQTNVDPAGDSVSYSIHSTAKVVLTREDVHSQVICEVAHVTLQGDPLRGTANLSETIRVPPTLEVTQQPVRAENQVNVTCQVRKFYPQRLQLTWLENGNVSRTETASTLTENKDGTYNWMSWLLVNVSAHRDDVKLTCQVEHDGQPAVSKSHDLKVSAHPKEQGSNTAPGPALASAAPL

[4] = molecular target: SIRPa on human monocytes (human) (UniProt P78324); test: flow cytometry on human monocytes v1/v1 (Fc receptors blocked), PE anti-human Fc; readout % stained monocytes
[5] = molecular target: SIRPγ on peripheral human CD3+ T cells (human) (UniProt Q9P1W8); test: flow cytometry on peripheral human CD3+ T cells, 10 µg/ml; Exp 1 HV1
SIRPγ on peripheral human CD3+ T cells (human), sequence (Q9P1W8 29-387): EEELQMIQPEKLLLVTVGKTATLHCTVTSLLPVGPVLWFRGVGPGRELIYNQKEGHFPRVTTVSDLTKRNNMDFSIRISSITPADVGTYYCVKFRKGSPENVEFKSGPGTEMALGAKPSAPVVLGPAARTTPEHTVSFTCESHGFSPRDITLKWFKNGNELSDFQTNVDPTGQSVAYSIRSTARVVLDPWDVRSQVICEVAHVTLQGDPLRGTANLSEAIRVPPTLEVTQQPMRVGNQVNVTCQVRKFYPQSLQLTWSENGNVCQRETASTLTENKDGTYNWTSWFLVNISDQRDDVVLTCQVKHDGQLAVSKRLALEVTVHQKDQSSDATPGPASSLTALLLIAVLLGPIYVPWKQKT

[6] = molecular target: SIRPγ on peripheral human CD3+ T cells (human) (UniProt Q9P1W8); test: flow cytometry on human CD3+ T cells, antibody at 10 micrograms/ml
[7] = molecular target: SIRPγ on peripheral human CD3+ T cells (human) (UniProt Q9P1W8); test: flow cytometry on peripheral human CD3+ T cells, 10 µg/ml; Exp 1 HV2
[8] = molecular target: recombinant hSIRPg-His (Sino Biologicals, reference 11828-H08H) (human) (UniProt Q9P1W8); test: BLI (Blitz): SIRPg-His on Ni-NTA biosensor, antibody at 10 µg/ml or 20 µg/ml (Example 9); 120 s association, 120 s dissociation
recombinant hSIRPg-His (Sino Biologicals, reference 11828-H08H) (human), sequence (Q9P1W8 29-360): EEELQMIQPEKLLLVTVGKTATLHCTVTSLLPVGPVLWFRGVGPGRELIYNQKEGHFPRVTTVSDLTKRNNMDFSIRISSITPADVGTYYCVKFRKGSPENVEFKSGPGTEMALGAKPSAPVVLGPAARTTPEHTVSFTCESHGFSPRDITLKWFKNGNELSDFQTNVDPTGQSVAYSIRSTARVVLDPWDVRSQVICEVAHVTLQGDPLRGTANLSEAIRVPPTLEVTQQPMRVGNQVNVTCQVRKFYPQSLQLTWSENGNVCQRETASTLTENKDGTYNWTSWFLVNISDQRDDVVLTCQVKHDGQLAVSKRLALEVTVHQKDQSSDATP

[9] = molecular target: SIRPa on human monocytes (human) (UniProt P78324); test: flow cytometry on human monocytes v1/v1 (Fc receptors blocked), PE anti-human Fc; readout MFI

EC50 [1]: 0.0033 µg/mL
Kd [2]: 0.367 nM
Kd [3]: 2.77 nM
EC50 [4]: 0.26 µg/mL
% of positive T-cells [5]: 80%
percent of T cells stained [6]: > 70%
% of positive T-cells [7]: 89.3%
Kd [8]: 2.14 nM
EC50 [9]: 0.378 µg/mL
B1: anti-human SIRPa antibody Kwar23 (Creative Biolabs) (antibody, from a related filing, V domains shown)
VH: EVQLQQSGAELVKPGASVKLSCTASGFNIKDYYIHWVQQRTEQGLEWIGRIDPEDGETKYAPKFQDKATITADTSSNTAYLHLSSLTSEDTAVYYCARWGAYWGQGTLVTVSS
VL: QIVLTQSPAIMSASPGEKVTLTCSASSSVSSSYLYWYQQKPGSSPKLWIYSTSNLASGVPARFSGSGSGTSYSLTISSMEAEDAASYFCHQWSSYPRTFGAGTKLELK
